# From US20240368354A1, “STEROID ACID-BASED HYDROGELS” (priority 2021, published 2024)
# Where a SMILES comes first, the peptide text is derived from it. Bridges are numbered along the chain shown (N, C = ends). Roman numbers before positions name the chains, in order. Where no end group is shown, it is not given here. The star is where a group is joined. Chenodeoxycholyl = C[C@H](CCC(=O)*)[C@H]1CC[C@H]2[C@@H]3[C@H](O)C[C@@H]4C[C@H](O)CC[C@]4(C)[C@H]3CC[C@]12C; Cholyl = C[C@H](CCC(=O)*)[C@H]1CC[C@H]2[C@@H]3[C@H](O)C[C@@H]4C[C@H](O)CC[C@]4(C)[C@H]3C[C@H](O)[C@]12C
# Assays:
# [1] = tested on: JIMT1 cells (breast cancer cell line); assay: Cell cytotoxicity assay (PrestoBlue); assay type: cell-based; settings: for toxicity of dimer hydrogels compared with monomers: cells treated three days, PrestoBlue, dimers versus monomers
# Protocol: 5000 JIMT1 cells (breast cancer cell line) per well (96-well plate) were plated. After one day, cells were treated with the different steroid acid-peptide conjugates or hydrogels for three days. Cell survival was determined by PrestoBlue™ following the manufacturer's protocol.
# Hydrogels are commonly used for drug delivery and in vivo applications, and therefore assessing their safety profiles is highly pertinent. Cytotoxicity of hydrogels was evaluated via a cytotoxicity assay by incubating cells with hydrogels formed by monomers or steroid acid-peptide conjugates, as described in Example 1.
# [2] = Hydrogel formation of steroid acid-peptide monomer conjugates upon resuspension in solvent; assay type: physicochemical; settings: for hydrogel formation: 6.67 mg/ml, cell medium (complete DMEM with human cells), 2 hours of incubation
# Protocol: Specific hydrogel formation was conducted by resuspending the powder of each steroid acid-peptide monomer or dimer conjugate in phosphate buffered saline (PBS) 1X (pH 7.4), pure water, complete cell medium (DMEM), DMSO, or alcohol:water mixtuLes (e.g., methanol:water (40:60)) at room temperature or 37° C. at a concentration between 6-30 mg/mL.
# Hydrogel formation was evaluated upon dissolution of the different peptide or steroid acid-peptide conjugates described in FIG. 1 in different solvents. […] Hydrogel structure (soft vs. hard) and color/clarity (translucent vs. opaque) varied among the different conditions. […] At concentrations lower than 10 mg/mL, all steroid acid-hnRNPA1 NLS conjugates tested formed liquid droplets in PBS at room temperature. Monomers of GWG-SV40NLS conjugated to steroid acids were also shown to form hydrogels (data not shown).
# [3] = monomers, room temperature and 37° C.
compound,measurement,setting,value
CSCC[C@H](NC(=O)[C@@H]1CCCN1C(=O)CNC(=O)[C@H](Cc1ccccc1)NC(=O)[C@H](CC(N)=O)NC(=O)[C@H](CO)NC(=O)[C@H](CSSC[C@H](NC(=O)CC[C@@H](C)[C@H]1CC[C@H]2[C@@H]3[C@H](O)C[C@@H]4C[C@H](O)CC[C@]4(C)[C@H]3CC[C@]12C)C(=O)N[C@@H](CO)C(=O)N[C@@H](CC(N)=O)C(=O)N[C@@H](Cc1ccccc1)C(=O)NCC(=O)N1CCC[C@H]1C(=O)N[C@@H](CCSC)C(=O)N[C@@H](CCCCN)C(=O)NCC(=O)NCC(=O)N[C@@H](CC(N)=O)C(=O)N[C@@H](Cc1ccccc1)C(=O)NCC(=O)NCC(=O)N[C@@H](CCCNC(=N)N)C(=O)N[C@@H](CO)C(=O)N[C@@H](CO)C(=O)NCC(=O)N1CCC[C@H]1C(=O)N[C@@H](Cc1ccc(O)cc1)C(N)=O)NC(=O)CC[C@@H](C)[C@H]1CC[C@H]2[C@@H]3[C@H](O)C[C@@H]4C[C@H](O)CC[C@]4(C)[C@H]3CC[C@]12C)C(=O)N[C@@H](CCCCN)C(=O)NCC(=O)NCC(=O)N[C@@H](CC(N)=O)C(=O)N[C@@H](Cc1ccccc1)C(=O)NCC(=O)NCC(=O)N[C@@H](CCCNC(=N)N)C(=O)N[C@@H](CO)C(=O)N[C@@H](CO)C(=O)NCC(=O)N1CCC[C@H]1C(=O)N[C@@H](Cc1ccc(O)cc1)C(N)=O [Dimerized CDCA-hnRNPA1 M9 NLS] (I: Chenodeoxycholyl-CSNFGPMKGGNFGGRSSGPY-NH2 / II: Chenodeoxycholyl-CSNFGPMKGGNFGGRSSGPY-NH2; disulfide I:1-II:1),cell viability,"[1]; JIMT1 cells, three days treatment, all concentrations tested up to 100 μg/mL",Viability was maintained
"GUDCA-hnRNPA1 NLS: glycoursodeoxycholic acid (GUDCA) conjugated to hnRNPA1 M9 NLS peptide (SEQ ID NO: 4) (SNFGPMKGGNFGGRSSGPY; also: glycoursodeoxycholic acid (GUDCA) conjugate, site not given here)",incubation time after which a hydrogel formed,"[2]; 20 mg/ml in pure water, room temperature",1 to 3 h
same,hydrogel formation,[2]; [3],formed a hydrogel
CA-Melittin: cholic acid conjugated to the peptide melittin (SEQ ID NO: 16),hydrogel formation in monomer form,[2],not able to form a hydrogel
CSCC[C@H](NC(=O)[C@@H]1CCCN1C(=O)CNC(=O)[C@H](Cc1ccccc1)NC(=O)[C@H](CC(N)=O)NC(=O)[C@H](CO)NC(=O)[C@H](CS)NC(=O)CC[C@@H](C)[C@H]1CC[C@H]2[C@@H]3[C@H](O)C[C@@H]4C[C@H](O)CC[C@]4(C)[C@H]3CC[C@]12C)C(=O)N[C@@H](CCCCN)C(=O)NCC(=O)NCC(=O)N[C@@H](CC(N)=O)C(=O)N[C@@H](Cc1ccccc1)C(=O)NCC(=O)NCC(=O)N[C@@H](CCCNC(=N)N)C(=O)N[C@@H](CO)C(=O)N[C@@H](CO)C(=O)NCC(=O)N1CCC[C@H]1C(=O)N[C@@H](Cc1ccc(O)cc1)C(N)=O [CDCA-hnRNPA1 M9 NLS] (Chenodeoxycholyl-CSNFGPMKGGNFGGRSSGPY-NH2),concentrations at which viability of cells was reduced,"[1]; JIMT1 cells, three days treatment, hydrogels formed by monomers",higher than 10 μg/mL
"CA-NLS1 RPS17: cholic acid conjugated to NLS1 RPS17 peptide (SEQ ID NO: 9) (MGRVRTKTVKKAAGG; also: cholic acid conjugate, site not given here)",hydrogel formation in monomer form,[2],not observed to form a hydrogel
"GDCA-hnRNPA1 NLS: glycodeoxycholic acid (GDCA) conjugated to hnRNPA1 M9 NLS peptide (SEQ ID NO: 4) (SNFGPMKGGNFGGRSSGPY; also: glycodeoxycholic acid (GDCA) conjugate, site not given here)",hydrogel formation,[2]; [3],formed a hydrogel
"LCA-hnRNPA1 NLS: lithocholic acid (LCA) conjugated to hnRNPA1 M9 NLS peptide (SEQ ID NO: 4) (SNFGPMKGGNFGGRSSGPY; also: lithocholic acid (LCA) conjugate, site not given here)",hydrogel formation following resuspension,"[2]; monomers, 25 mg/mL in PBS 1X (pH 7.4), room temperature",a hydrogel spontaneously formed within a matter of seconds
CC[C@H](C)[C@H](NC(=O)CNC(=O)[C@H](CSSC[C@H](NC(=O)CC[C@@H](C)[C@H]1CC[C@H]2[C@@H]3[C@H](O)C[C@@H]4C[C@H](O)CC[C@]4(C)[C@H]3C[C@H](O)[C@]12C)C(=O)NCC(=O)N[C@H](C(=O)NCC(=O)N[C@@H](C)C(=O)N[C@H](C(=O)N[C@@H](CC(C)C)C(=O)N[C@@H](CCCCN)C(=O)N[C@H](C(=O)N[C@@H](CC(C)C)C(=O)N[C@H](C(=O)N[C@H](C(=O)NCC(=O)N[C@@H](CC(C)C)C(=O)N1CCC[C@H]1C(=O)N[C@@H](C)C(=O)N[C@@H](CC(C)C)C(=O)N[C@H](C(=O)N[C@@H](CO)C(=O)N[C@@H](Cc1c[nH]c2ccccc12)C(=O)N[C@H](C(=O)N[C@@H](CCCCN)C(=O)N[C@@H](CCCNC(=N)N)C(=O)N[C@@H](CCCCN)C(=O)N[C@@H](CCCNC(=N)N)C(=O)N[C@@H](CCC(N)=O)C(=O)N[C@@H](CCC(N)=O)C(N)=O)[C@@H](C)CC)[C@@H](C)CC)[C@@H](C)O)[C@@H](C)O)C(C)C)C(C)C)[C@@H](C)CC)NC(=O)CC[C@@H](C)[C@H]1CC[C@H]2[C@@H]3[C@H](O)C[C@@H]4C[C@H](O)CC[C@]4(C)[C@H]3C[C@H](O)[C@]12C)C(=O)NCC(=O)N[C@@H](C)C(=O)N[C@H](C(=O)N[C@@H](CC(C)C)C(=O)N[C@@H](CCCCN)C(=O)N[C@H](C(=O)N[C@@H](CC(C)C)C(=O)N[C@H](C(=O)N[C@H](C(=O)NCC(=O)N[C@@H](CC(C)C)C(=O)N1CCC[C@H]1C(=O)N[C@@H](C)C(=O)N[C@@H](CC(C)C)C(=O)N[C@H](C(=O)N[C@@H](CO)C(=O)N[C@@H](Cc1c[nH]c2ccccc12)C(=O)N[C@H](C(=O)N[C@@H](CCCCN)C(=O)N[C@@H](CCCNC(=N)N)C(=O)N[C@@H](CCCCN)C(=O)N[C@@H](CCCNC(=N)N)C(=O)N[C@@H](CCC(N)=O)C(=O)N[C@@H](CCC(N)=O)C(N)=O)[C@@H](C)CC)[C@@H](C)CC)[C@@H](C)O)[C@@H](C)O)C(C)C)C(C)C [dimerized CA-Melittin],toxicity of dimer hydrogels compared with monomers,[1],significantly less toxic
"GCDCA-hnRNPA1 NLS: glycochenodeoxycholic acid (GCDCA) conjugated to hnRNPA1 M9 NLS peptide (SEQ ID NO: 4) (SNFGPMKGGNFGGRSSGPY; also: glycochenodeoxycholic acid (GCDCA) conjugate, site not given here)",time after which hydrogel formation was induced,"[2]; monomer, final concentration 6.67 mg/mL, complete DMEM containing human cells, room temperature and 37° C.",30 min
same,hydrogel formation,[2]; [3],formed a hydrogel
CSCC[C@H](NC(=O)[C@H](CSSC[C@H](NC(=O)CC[C@@H](C)[C@H]1CC[C@H]2[C@@H]3[C@H](O)C[C@@H]4C[C@H](O)CC[C@]4(C)[C@H]3C[C@H](O)[C@]12C)C(=O)N[C@@H](CCSC)C(=O)NCC(=O)N[C@@H](CCCNC(=N)N)C(=O)N[C@H](C(=O)N[C@@H](CCCNC(=N)N)C(=O)N[C@H](C(=O)N[C@@H](CCCCN)C(=O)N[C@H](C(=O)N[C@H](C(=O)N[C@@H](CCCCN)C(=O)N[C@@H](CCCCN)C(=O)N[C@@H](C)C(=O)N[C@@H](C)C(=O)NCC(=O)NCC(N)=O)C(C)C)[C@@H](C)O)[C@@H](C)O)C(C)C)NC(=O)CC[C@@H](C)[C@H]1CC[C@H]2[C@@H]3[C@H](O)C[C@@H]4C[C@H](O)CC[C@]4(C)[C@H]3C[C@H](O)[C@]12C)C(=O)NCC(=O)N[C@@H](CCCNC(=N)N)C(=O)N[C@H](C(=O)N[C@@H](CCCNC(=N)N)C(=O)N[C@H](C(=O)N[C@@H](CCCCN)C(=O)N[C@H](C(=O)N[C@H](C(=O)N[C@@H](CCCCN)C(=O)N[C@@H](CCCCN)C(=O)N[C@@H](C)C(=O)N[C@@H](C)C(=O)NCC(=O)NCC(N)=O)C(C)C)[C@@H](C)O)[C@@H](C)O)C(C)C [dimerized CA-NLS1 RPS17] (I: Cholyl-CMGRVRTKTVKKAAGG-NH2 / II: Cholyl-CMGRVRTKTVKKAAGG-NH2; disulfide I:1-II:1),toxicity of dimer hydrogels compared with monomers,[1],significantly less toxic
